How the values were obtained:
FGFR1-DII = target: T1, FGFR1-DII (Homo sapiens, UniProt P11362); assay: Binding activity by biolayer interference (BLI) to FGFR1-DII; settings: Octet, VHH immobilized
T1 construct: The FGFR1 extracellular domain has DII and DIII domains; made in house; host or cells: AAVpro293T cells
T1 sequence (P11362 158-246 limits assumed): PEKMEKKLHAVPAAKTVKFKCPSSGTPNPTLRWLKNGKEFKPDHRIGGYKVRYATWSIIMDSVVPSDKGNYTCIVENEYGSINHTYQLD
Experimental: The FGFR1 extracellular domain has DII and DIII domains. Each of an FGFR1 extracellular domains (hereinafter may be abbreviated as “FGFR1-DIIDIII”, “FGFR1-DII”, or “FGFR1-DIII”) was expressed using AAVpro293T cells as follows, these domains were purified, and an affinity measurement test with VHH Clone #1 was performed by a biolayer interference (BLI) method.
The binding activities of FGFR1-DIIDIII, FGFR1-DII, and FGFR1-DIII to VHH Clone #1 were measured by a biolayer interference method (hereinafter sometimes abbreviated as “BLI”). In BLI, using Octet 384 (manufactured by Fortebio), VHH Clone #1 diluted with a kinetics buffer (0.05% Tween20-containing PBS, pH 7.4) was immobilized on an Anti-Penta-HIS (HIS1K, manufactured by Fortebio) sensor chip, and bound to FGFR1-DIIDIII, FGFR1-DII, and FGFR1-DIII, which had been adjusted from 100 nM in 2-fold serial dilutions, and the dissociation rate was measured.
In the preparation for measurement, a tip of the sensor chip was immersed in 200 μL of the kinetics buffer for 10 minutes in order to hydrate the sensor chip. […]
After completion of the measurements, the measured value of a Reference (only the kinetics buffer) was subtracted from the actual measurement value, and Global Fitting was performed using a 1:1 binding model using Octet software to calculate the binding activity (FIG. 22).

FGFR3-Fc = assay: SPR affinity of VHH (monomer) for FGFR3-Fc; type: binding, human; settings: same manner as Example 5
Experimental: The binding activity of VHH Clone #1 or VHH Clone #2 immobilized on Series S Sensor Chip CAP (manufactured by Cytiva) with respect to FGFR1-Fc was measured using Biacore (registered trademark) T200 (manufactured by Cytiva). Measurement was performed by CAP Single-cycle Kinetics. The temperature was set to 25° C. As a running buffer, 10 mM HEPES (pH 7.4) (Cytiva) including HBS-EP+(150 mM NaCl, 0.5 mM EDTA, and 0.05% surfactant P20) was used. The measurement order for each run is as follows.
2) Measurement of binding activity: The flow rate was set to 30 μL/mL, and VHH Clone #1 or VHH Clone #2 each diluted to 1.85 nM, 5.56 nM, 16.67 nM, or 50 nM, using a running buffer, was allowed to have an association time set to 120 seconds for binding and a dissociation time set to 600 seconds for interaction.
3) Regeneration of sensor chip surface: The flow rate was set to 10 μL/mL, a solution in which Reaneration stock 1 and Regeneration stock 2 (manufactured by Cytiva) were mixed at the ratio of 3:1 was added thereto for 120 seconds to extract the immobilized VHH. Next, analysis was performed with a 1:1 binding model using Biacore T200 Evaluation (software version 2.0, manufactured by Cytiva), and the binding activity was calculated.
The binding activity of VHH Clone #1 to FGFR2-Fc, FGFR3-Fc, or FGFR4-Fc was measured in the same manner as in Example 5.

KD (M) (FGFR1-DII): No Binding
kd (FGFR3-Fc): 0.235 s⁻¹
B1: VHH Clone #1: alpaca-derived VHH single-domain antibody (monomer) binding FGFR1, amino acid sequence SEQ ID NO: 17 (protein)
VHH: QLQLVESGGGSVQAGGSLRLSCAASRSLSRFNVWTWYRQAPVKQRELVASITKSGDTNYAESVKGRFIISRDDDKNTVYLQMNNLKSEDTGIYYCAGSYYSGSYLYPSPGGFSVWGQGTQVTVSS
modifications: VHH_Clone_#1
ka (FGFR3-Fc): 232000 M⁻¹ s⁻¹
